Results reported in US10273291.

Biological target: ΔRSC3
Test: ELISA, antigen coated, IgG1

Substance VRC-PG04 (antibody) has a fold less binding than to RSC3 of 100 fold.

For VRC-PG04b (antibody), the fold less binding than to RSC3 was 100 fold.
